Measured values as given in paper PMC8543943, “Structure-guided steric hindrance engineering of Bacillus badius phenylalanine dehydrogenase for efficient L-homophenylalanine synthesis” (Biotechnology for Biofuels, 2021).

Legend:
Experiment in all cases: purified protein
Assay type in all cases: biochemical, Pseudobacillus badius
purified protein [1] = substrate: NC(=O)C1=CN([C@@H]2O[C@H](COP(=O)(O)OP(=O)(O)OC[C@H]3O[C@@H](n4cnc5c(N)ncnc54)[C@H](O)[C@@H]3O)[C@@H](O)[C@H]2O)C=CC1; conditions: reductive amination, 2 M NH4Cl/NH4OH pH 9.5, 20 mM 2-OPBA, 30 °C, varied: cofactor
purified protein [2] = substrate: O=C(O)C(=O)CCc1ccccc1; conditions: reductive amination, 2 M NH4Cl/NH4OH pH 9.5, 0.5 mM NADH, 30 °C
purified protein [3] = substrate: O=C(O)C(=O)Cc1ccccc1; conditions: reductive amination, 2 M NH4Cl/NH4OH pH 9.5, 0.5 mM NADH, 30 °C

B1: BbPheDH (Pseudobacillus badius) (protein)
chain: SLVEKTSIIKDFTLFEKMSEHEQVVFCNDPATGLRAIIAIHDTTLGPALGGCRMQPYNSVEEALEDALRLSKGMTYKCAASDVDFGGGKAVIIGDPQKDKSPELFRAFGQFVDSLGGRFYTGTDMGTNMEDFIHAMKETNCIVGVPEAYGGGGDSSIPTAMGVLYGIKATNKMLFGKDDLGGVTYAIQGLGKVGYKVAEGLLEEGAHLFVTDINEQTLEAIQEKAKTTSGSVTVVASDEIYSQEADVFVPCAFGGVVNDETMKQFKVKAIAGSANNQLLTEDHGRHLADKGILYAPDYIVNSGGLIQVADELYEVNKERVLAKTKHIYDAILEVYQQAELDQITTMEAANRMCEQRMAARGRRNSFFTSSVKPKWDIRN
notes: His-tagged, full length, pET-28a (+), expressed in E. coli BL21 (DE3), Ni-NTA purified
- Km (purified protein [1]): 65 ± 3 µM
- kcat (purified protein [1]): 8 ± 1 s⁻¹
- kcat/Km (purified protein [1]): 115000 ± 14000 M⁻¹ s⁻¹
- Km (purified protein [2]): 600 ± 60 µM
- kcat (purified protein [2]): 11 ± 1 s⁻¹
- kcat/Km (purified protein [2]): 17000 ± 1000 M⁻¹ s⁻¹
- Km (purified protein [3]): 300 ± 40 µM
- kcat (purified protein [3]): 115 ± 6 s⁻¹
- kcat/Km (purified protein [3]): 370000 ± 45000 M⁻¹ s⁻¹
